US20170275344A1, “POLYPEPTIDES AND USES THEREOF AS A DRUG FOR TREATMENT OF AUTOIMMUNE DISORDERS” (Compugen Ltd., priority 2014, published 2017)

Assays:
[1] = test system: total splenocytes and lymph node cells; test: Ex vivo recall responses in adoptive transfer R-EAE; type: cell-based, mouse
Protocol: On day 45 (unless otherwise indicated) following cell transfer, spleen and cervical lymph nodes or CNS from 3 representative mice of each group were collected, and the total cells were activated ex vivo at 0.5×10^6 cells per well with either OVA323-339, PLP139-151, PLP178-191, MBP84-104 (20 ug/ml), or anti-CD3 (1 ug/ml). Two sets of cultures were set up side-by-side. One set was pulsed with 1 uCi of tritiated thymidine at 24 hours and harvested at 72 hours to determine cell proliferation. In the second set of cultures, supernatants were collected at 72 hours and tested for peptide-specific cytokine production as determined by LiquiChip.

[2] = test system: total splenocytes; test: Ex vivo recall responses of splenocytes, week 8 post bone marrow transplant; type: cell-based, mouse
Protocol: (§1) On week 8 post bone marrow cell transplantion, total splenocytes (5×10^5 cells/well) were cultured in the presence of medium alone (no stimulation), anti-CD3 (1 ug/ml), DBY peptide (10 ug/ml), irradiated male splenocytes (5×10^5 cells/well), or irradiated female splenocytes (5×10^5 cells/well). The individual splenocyte samples were cultured separately in triplicate wells. For T cell proliferative response, the cultures were pulsed with 1 uCi of tritiated thymidine at 24 hours and harvested at 72 hours post culture initiation. The statistical analysis carried out on the data is one-way ANOVA followed by Dunnett's post test as compared to the mice receiving male CD45.1+ bone marrow cells plus Control Ig treatment, p-values*<0.05, **<0.01,***<0.001, and #<0.0001.
as §1, with “transplant,” for “transplantion,”, “For” for “For T cell proliferative response,”, “cytokine cultures, the supernatants” for “cultures”, “collected” for “pulsed with 1 uCi of tritiated thymidine at 24 hours and harvested”, “initiation and the level of secreted cytokine was determined via LiquiChip.” for “initiation.”
These same populations of cells were analyzed at week 8 within the spleen. In addition, the proliferative and secreted cytokine responses of total splenocytes in ex vivo recall cultures were tested in the presence of medium alone, anti-CD3 (1 ug/ml), the HY antigen DBY peptide (NAGFNSNRANSSRSS; Genemed Synthesis; San Antonio, Tex.) (10 ug/ml), irradiated male splenocytes (1:1 ratio), or irradiated female splenocytes (1:1 ratio).

[3] = test system: SJL/J mice; test: Trafficking of transferred PLP139-151 sensitized cells into the CNS (flow cytometry); type: in vivo, mouse
Protocol: PLP139-151 sensitized cells were generated as described in Materials and Methods (cell counts in the reactivation culture are presented in Table 2) and labeled with PBSE (4 uM) before transfer to naïve mice. In study “Cgen data” (FIG. 12), disease was induced in recipient mice (n=10 per group) by i.v. transfer of 5×10^6 blast cells to each recipient mouse. A relatively large number of transferred cells were used in order to allow detection of the transferred cells by flow cytometry analysis at the end of the study. Mice were split into Control Ig and C1ORF32 ECD-Fc (SEQ ID NO:42) treatment groups, receiving 100 ug/dose intraperitoneal injection three times per week for 2 weeks. On Day +14 after cell transfer, 5 representative mice from each group were selected for analysis of trafficking of transferred cells into the CNS. Spleens, cervical lymph nodes, and CNS were collected, and the number of PBSE- or PBSE+/CD45+/CD3+/CD4+ T cells was analyzed by flow cytometric analysis.
An additional experiment (designated “MYC48 FACS”, FIG. 13) was performed using an alternative staining follow-up approach. SJL-Actin/GFP mice were primed with PLP139-151/CFA, and sensitized blast cells were generated as described in Materials and Methods (cell counts in the reactivation culture are presented in Table 2). On Day +3 of culture, PLP139-151 sensitized cells were collected and labeled with PBSE (4 uM). Disease was induced in the recipient mice (n=10 per group), by i.v. transfer of 5×10^6 blast cells/mouse. Beginning at the time of cell transfer, mice were treated with Control Ig or C1ORF32 ECD-Fc (SEQ ID NO:42) (100 ug/dose i.p. three times per week for 2 weeks). […] To evaluate C1ORF32 ECD-Fc (SEQ ID NO:42) effect on immune cell trafficking to the CNS, spleens, cervical lymph nodes, and CNS cells collected form 5 mice on day +10 post cell transfer, and the number of transferred CD45hi PBSE+ or GFP+ cells was analyzed by flow cytometry. […]

B1: C1ORF32 ECD-Fc (SEQ ID NO:42): fusion protein of human C1ORF32 ECD fused to mouse immunoglobulin Fc (human-mouse fusion protein) (protein)
chain: LQVTVPDKKKVAMLFQPTVLRCHFSTSSHQPAVVQWKFKSYCQDRMGESLGMSSTRAQSLSKRNLEWDPYLDCLDSRRTVRVVASKQGSTVTLGDFYRGREITIVHDADLQIGKLMWGDSGLYYCIITTPDDLEGKNEDSVELLVLGRTGLLADLLPSFAVEIMGSENLYFQGSGEPRGPTIKPCPPCKCPAPNLLGGPSVFIFPPKIKDVLMISLSPIVTCVVVDVSEDDPDVQISWFVNNVEVHTAQTQTHREDYNSTLRVVSALPIQHQDWMSGKEFKCKVNNKDLPAPIERTISKPKGSVRAPQVYVLPPPEEEMTKKQVTLTCMVTDFMPEDIYVEWTNNGKTELNYKNTEPVLDSDGSYFMYSKLRVEKKNWVERNSYSCSVVHEGLHNHHTTKSFSRTPGK
modifications: Fusion protein human C1ORF32-ECD fused to mouse IgG2a Fc
- recall responses of CNS cells to PLP139-151 and anti CD3 ([1]; day 10, treatment from time of cell transfer): abolished
- GM-CSF secretion ([1]; day 45, activation with PLP139-151 and PLP178-191): inhibition of GM-CSF secretion
- IFN-gamma and IL-17 secretion ([1]; day 45, activation with anti-CD3, PLP139-151, and PLP178-191): inhibition
- splenocyte secretion of IL-4 and IL-10 ([1]; day 45, in response to PLP139-151): increased splenocyte secretion
- recall responses: cellular proliferation of splenocytes and lymph node cells ([1]; day 45, treatment from onset of remission): decreased level of cellular proliferation
- inflammatory cytokines (IFN-gamma, IL-17, GM-CSF, IL-12, IL-2 and TNF-alpha) ([2]; activation with male irradiated splenocytes or DBY peptide, vs Ig control treated mice): significantly lower levels
- IFNg, IL-17, IL-2, IL-12 and GM-CSF secretion ([2]; cultures stimulated with male irradiated splenocytes): inhibitory trend
- level of IL-10 and IL-4 secreted ([2]; splenocytes of treated mice, in response to male or female splenocytes): significantly increased
- number of transferred CD4+ T cells within the CNS ([3]; study Cgen data, treatment from time of cell transfer): decrease
- number of total or activated transferred T cells in the spleen and cervical lymph nodes ([3]; study MYC48 FACS, day +10): No change
- number of GFP+ and PBSE+ transferred cells in the CNS ([3]; study MYC48 FACS, day +10 post cell transfer): decrease
